B1: LT: lymphotoxin comparison substance, cloned and expressed in E. coli; product was a mixture of lymphotoxin derivatives (protein, UniProt P01374 35-205, looked up)
Lymphotoxin-alpha: LPGVGLTPSAAQTARQHPKMHLAHSTLKPAAHLIGDPSKQNSLLWRANTDRAFLQDGFSLSNNSLLVPTSGIYFVYSQVVFSGKAYSPKATSSPLYLAHEVQLFSSQYPFHVPLLSSQKMVYPGLQEPWLHSMYHGAAFQLTQGDQLSTHTDGIPHLVLSPSTVFFGAFAL
B2: interferon-gamma: human recombinant interferon-gamma (protein, UniProt P01579 24-161, looked up)
Interferon gamma: QDPYVKEAENLKKYFNAGHSDVADNGTLFLGILKNWKEESDRKIMQSQIVSFYFKLFKNFKDDQSIQKSVETIKEDMNVKFFNSNKKKRDDFEKLTNYSVTDLNVQRKAIHELIQVMAELSPAAKTGKRKRSQMLFRG

Tests used:
L929 = assay: In vitro cytotoxic activity towards L929 (crystal violet stain, 48 h); assay type: cell-based; details: L929, 48 h; corrected by comparison with the control TNF standard
Procedure: 11. IN VITRO CYTOTOXIC ACTIVITY OF HUMAN RECOMBINANT LYMPHOTOXIN (LT) AND DELTA 23, DELTA 24 AND DELTA 25 LT MUTANTS TOWARDS THE TNF- AND LYMPHOTOXIN-SENSITIVE CELL LINES L929 AND WEHI-164
The substance was added the next day in 25 μl of complete culture medium per well. The initial concentration was 10 ng of protein per ml in each case; 2 duplicate titrations were carried out in series. The following controls were also set up on each culture plate: a) only culture medium; b) cells with culture medium but without lymphotoxin; c) a titrated TNF standard of known biological activity. After incubation for a further 48 h under the conditions indicated above, the surviving cells were stained with a solution of crystal violet (15 g of crystal violet, 7 g of NaCl, 646 ml of ethanol, 172.8 ml of 37% formaldehyde made up to 2 1 with H2 O. This entailed the culture medium being drained off and then the cells being stained with 50 μl of the solution at room temperature for 20 min. The culture plates were then washed with water until all the dyestuff which was not cell-bound had been removed. The cell-bound dyestuff was determined by photometry, after addition of 100 μl of measurement solution (50% ethanol, 0.1% acetic acid), at 540 nm using a Titertek Multiscan MCC/340 (Flow Laboratories, Meckenheim). […]

Balb/c mice = assay: Determination of acute toxicity, intravenous; assay type: in vivo
Procedure: Male Balb/c mice from 4 to 6 weeks of age were used to determine the acute toxicity of the substances under investigation. The animals were randomized (5 animals in each group) and, following a one-week acclimatization period, they received various doses of the test substance (0.25-4.0 mg/kg body weight intravenously, injected into one of the lateral caudal veins). The volume administered was 10 ml/kg body weight; the injection was administered over a period of 10 seconds. The substances had been dissolved in physiological saline solution which contained 0.2% BSA (bovine serum albumin) immediately before the intravenous injection. Animals which received intravenous administration of 10 ml of physiological saline solution per kg of body weight, with 0.2% BSA, acted as controls. […] The following signs were noted: diarrhea, diminished locomotion, piloerection, cyanosis and death; in addition, the body temperature and weight of the animals were determined at regular intervals.

[1] = in vivo studies; cited from earlier work
MG-63 tumor cells = assay: Synergistic cytotoxic activity with recombinant interferon-gamma on tumor cells (72 h, crystal violet); details: for factor by which the cytotoxic effect induced by interferon-gamma alone is enhanced: 2 ng/ml interferon-gamma with 2 ng/ml lymphotoxin; for enhancement of the cytotoxicity induced by interferon-gamma (synergistic effect): mean of two independent experiments; for sensitivity / growth inhibition of MG-63 by the single substance: substance alone
Procedure: 2×10^3 cells in the exponential phase of growth were plated out in complete culture medium (RPMI 1640+10% FCS, both from Flow Laboratories, Meckenheim) in each well of a 96-well plate and were incubated overnight at 37° C. and 5% CO2 in an atmosphere saturated with water vapor. Then, maintaining the interferon-gamma (human recombinant) concentrations constant, the lymphotoxin or the lymphotoxin mutants were subjected to serial 5-fold dilution starting from a concentration of 10 ng/ml protein. The final volume was 150 μl in all the culture wells. Pure culture medium or cultivated cells without the addition of IFN-gamma and/or LT or LT mutants were used as controls. The culture plates were incubated for a further 72 h under the conditions indicated above and were then stained using the crystal violet stain as described under
The synergistic action of lymphotoxins with interferon-gamma was determined as follows:
a) the antiproliferative activity of interferon-gamma was determined from the optical densities of the samples by the following formula: [formula]
b) Determination of the cytotoxic activity of the combination of interferon-gamma and lymphotoxin using formula A.
c) Determination of the synergistic effect of lymphotoxins with interferon-gamma: [formula]
The figures given in the Table were determined as explained above under 12a to 12c and represent the means of two independent experiments.

[2] = tested on: primary cell cultures and normal cell lines; details: cited from earlier work

Molecule	Activity (one unit = amount which induces 50% lysis of the given number of cells) (L929)	time at which signs were detectable (as early as) (Balb/c mice; after the injection, especially at higher doses) [h]	severity of observed signs compared between substances (Balb/c mice; intravenous)	signs observed after injection (Balb/c mice; intravenous, 0.25-4.0 mg/kg)	reversibility of signs (Balb/c mice; surviving animals, within the 7-day observation period)	antitumor effect [1]	factor by which the cytotoxic effect induced by interferon-gamma alone is enhanced (MG-63 tumor cells; first measurement)	factor by which the cytotoxic effect induced by interferon-gamma alone is enhanced (MG-63 tumor cells; second measurement)	enhancement of the cytotoxicity induced by interferon-gamma (synergistic effect) (MG-63 tumor cells; IFN-gamma 0.4 ng/ml, lymphotoxin 0.016 ng/ml)	enhancement of the cytotoxicity induced by interferon-gamma (synergistic effect) (MG-63 tumor cells; IFN-gamma 0.4 ng/ml, lymphotoxin 0.08 ng/ml)	enhancement of the cytotoxicity induced by interferon-gamma (synergistic effect) (MG-63 tumor cells; IFN-gamma 0.4 ng/ml, lymphotoxin 0.4 ng/ml)	enhancement of the cytotoxicity induced by interferon-gamma (synergistic effect) (MG-63 tumor cells; IFN-gamma 0.4 ng/ml, lymphotoxin 2 ng/ml)	enhancement of the cytotoxicity induced by interferon-gamma (synergistic effect) (MG-63 tumor cells; IFN-gamma 0.4 ng/ml, lymphotoxin 10 ng/ml)	enhancement of the cytotoxicity induced by interferon-gamma (synergistic effect) (MG-63 tumor cells; IFN-gamma 2.0 ng/ml, lymphotoxin 0.016 ng/ml)	enhancement of the cytotoxicity induced by interferon-gamma (synergistic effect) (MG-63 tumor cells; IFN-gamma 2.0 ng/ml, lymphotoxin 0.08 ng/ml)	enhancement of the cytotoxicity induced by interferon-gamma (synergistic effect) (MG-63 tumor cells; IFN-gamma 2.0 ng/ml, lymphotoxin 0.4 ng/ml)	enhancement of the cytotoxicity induced by interferon-gamma (synergistic effect) (MG-63 tumor cells; IFN-gamma 2.0 ng/ml, lymphotoxin 2 ng/ml)	enhancement of the cytotoxicity induced by interferon-gamma (synergistic effect) (MG-63 tumor cells; IFN-gamma 2.0 ng/ml, lymphotoxin 10 ng/ml)	sensitivity / growth inhibition of MG-63 by the single substance (MG-63 tumor cells)	cytotoxic activity [2]
B1	6.1 × 10^7 U/mg protein	2	most pronounced	dose- and time-dependent reduction in body temperature and weight and in locomotion, and induced piloerection and diarrhea	completely reversible in the surviving animals	effective antitumor agent	1.57	1.41	1.42	1.87	1.75	1.89	2.16	1.15	1.27	1.40	1.49	1.61	not sensitive to lymphotoxin alone	less or nonexistent
B2	–	–	–	–	–	–	–	–	–	–	–	–	–	–	–	–	–	–	growth is inhibited dosedependently	–

From US5157106A, “N-terminal deletions of lymphotoxin, their preparation and use” (BASF Aktiengesellschaft, priority 1986, dated 1992)
